The results in this text go back to publication PMC4899477.

In the assay the target is SV2A (SV2). Description: SV-PD (synaptic vesicle pull-down) with blocking peptide, immunoblot densitometry. To be noted: pull down w/ C3WildF (m1), lower value = stronger block of SV capture by the peptide, parent: est. 39, read off a plot. For orientation: A western blot detects proteins with antibodies after separation by electrophoresis.

For the substance “… mimetic blocking peptide (CaV2.2 aa 2319-2328) H1A; Q2A”, under “N = 8”, the other: SV2 capture by C3WildF in presence of peptide (% SH3) stood at 58 % SH3.
For the substance “… mimetic blocking peptide (CaV2.2 aa 2319-2328) H1G; Q2G; V6A; P7G; N8G; Y10A”, for the setting “N = 8”, the other: SV2 capture by C3WildF in presence of peptide (% SH3) stood at 74 % SH3.
For the substance “… mimetic blocking peptide (CaV2.2 aa 2319-2328) R4A; R5A”, the other: SV2 capture by C3WildF in presence of peptide (% SH3) (N = 3) is 83 % SH3.
Turning to “… mimetic blocking peptide (CaV2.2 aa 2319-2328) R4G; R5G; V6A; P7G; N8G; Y10A”, for the setting “N = 8”, the other: SV2 capture by C3WildF in presence of peptide (% SH3) is 110 % SH3.
Consider “… mimetic blocking peptide (CaV2.2 aa 2319-2328) V6A; P7A; N8A; G9A; Y10A”, for which the other: SV2 capture by C3WildF in presence of peptide (% SH3) (N = 5) is 44 % SH3.
As for “… mimetic blocking peptide (CaV2.2 aa 2319-2328) V6A; P7G; N8G; Y10A”, the other: SV2 capture by C3WildF in presence of peptide (% SH3) (N = 7) stood at 41 % SH3.
Consider “… mimetic blocking peptide (CaV2.2 aa 2319-2328) V6A; Y10A”, for which the other: SV2 capture by C3WildF in presence of peptide (% SH3) (N = 8) is 29 % SH3.
Turning to “… mimetic blocking peptide (CaV2.2 aa 2319-2328) V6G; P7A; N8A; G9A; Y10G”, the other: SV2 capture by C3WildF in presence of peptide (% SH3) (N = 6) came to 28 % SH3.
Same read-out and setting: the result for “… mimetic blocking peptide (CaV2.2 aa 2319-2328) V6G; Y10G” reads 44 % SH3.
